Biological target: αVβ1/3/5 integrins located in the cardiomyocyte cell membrane
Assay: cell-based or functional assay

half-maximal stimulation of DNA synthesis in primary neonatal rat ventricular cardiomyocytes (BrdU uptake): 155 nM
Substance: Recombinant periostin, purified from HEK293 cells expressing the full-length human cDNA (from UniProt Q15063 22-836) (ligand)
